Measurements as given in patent US20260022352A1, “COMPOSITIONS AND METHODS FOR PURIFYING […]” (North Carolina State University, priority 2023, published 2026).

Target: VSV-G-pseudo-typed lentiviral vector particles (vesicular stomatitis virus) (UniProt P03522)
Chain of UniProt P03522 (P03522 17-511): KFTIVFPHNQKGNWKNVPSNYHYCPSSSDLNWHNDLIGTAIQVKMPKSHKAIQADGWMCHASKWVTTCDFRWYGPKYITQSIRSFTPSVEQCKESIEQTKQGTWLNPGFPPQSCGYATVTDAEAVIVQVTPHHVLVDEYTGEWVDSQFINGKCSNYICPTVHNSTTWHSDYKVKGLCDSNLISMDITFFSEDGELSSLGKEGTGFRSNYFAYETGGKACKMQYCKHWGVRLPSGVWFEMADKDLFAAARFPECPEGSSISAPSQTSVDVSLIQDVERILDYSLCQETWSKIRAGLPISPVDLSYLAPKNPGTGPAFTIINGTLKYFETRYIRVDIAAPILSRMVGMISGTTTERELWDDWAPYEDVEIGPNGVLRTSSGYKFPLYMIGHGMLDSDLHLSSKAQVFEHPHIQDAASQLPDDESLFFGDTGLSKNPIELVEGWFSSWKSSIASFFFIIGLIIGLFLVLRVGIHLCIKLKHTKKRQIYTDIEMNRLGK

Row | Sequence | capacity [TU/mL] | LVV adsorbed [TU/mL]
1 | FEKISAAE (peptide) | 5e+08 | 
2 | GKEAAFAA (peptide) |  | > 1e+09
